From article PMC3832594 come the findings set out here.

The target of the assay is MCT2 tagged at its N-terminus with CFP (rat) (UniProt Q63344). In words: FRET or BRET; live COS-7 cells co-transfected with MCT2-ECFP (N-terminal) and np55- or np65-EYFP (C-terminal), 48 h after transfection; 37°C, imaging buffer pH 7.4; ratio of emission at 480 nm to 530 nm on excitation at 430 nm (MCT2-CFP alone 1.33±0.016). For orientation: In BRET a luciferase serves as donor, and the signal depends on an acceptor being close.
MCT2 tagged at its N-terminus with CFP (rat), sequence (Q63344 whole entry): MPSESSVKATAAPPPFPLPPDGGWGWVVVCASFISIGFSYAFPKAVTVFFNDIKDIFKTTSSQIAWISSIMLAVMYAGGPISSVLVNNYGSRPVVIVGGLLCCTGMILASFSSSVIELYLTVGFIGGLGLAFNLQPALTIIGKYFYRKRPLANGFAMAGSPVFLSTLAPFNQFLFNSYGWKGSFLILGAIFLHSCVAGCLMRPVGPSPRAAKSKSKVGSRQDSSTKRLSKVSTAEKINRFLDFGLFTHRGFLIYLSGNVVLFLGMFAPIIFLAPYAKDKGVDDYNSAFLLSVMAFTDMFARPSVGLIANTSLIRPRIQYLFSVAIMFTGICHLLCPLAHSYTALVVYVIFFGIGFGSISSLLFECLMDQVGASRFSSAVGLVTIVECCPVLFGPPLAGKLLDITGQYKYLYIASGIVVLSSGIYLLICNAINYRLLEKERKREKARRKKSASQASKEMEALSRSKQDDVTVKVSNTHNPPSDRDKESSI

np55 C-terminally labelled with YFP (natural protein), sequence (P97546 29-393): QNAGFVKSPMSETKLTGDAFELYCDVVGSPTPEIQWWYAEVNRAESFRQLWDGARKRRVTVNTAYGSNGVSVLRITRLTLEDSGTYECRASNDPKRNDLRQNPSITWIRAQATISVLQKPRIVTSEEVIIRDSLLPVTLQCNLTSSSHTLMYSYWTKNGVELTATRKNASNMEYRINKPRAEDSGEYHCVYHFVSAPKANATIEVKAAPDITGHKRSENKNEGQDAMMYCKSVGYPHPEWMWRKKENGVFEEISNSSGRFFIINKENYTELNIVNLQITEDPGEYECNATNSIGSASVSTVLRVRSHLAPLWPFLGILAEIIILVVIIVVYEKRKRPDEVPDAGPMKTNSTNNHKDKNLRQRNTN

For “np55 C-terminally labelled with YFP (natural protein)”, the 480:530 nm fluorescence emission ratio (FRET) turned out to be 0.797.
